Sequences and labels used below:
B1: chicken netrin‐2L (netrin‐2‐like) (ligand)
chain: not shown
notes: netrin-2 (netrin-2-like), chicken, used in place of human netrin-3 as its ortholog; Used because recombinant human netrin-3 was not soluble; also called NTN2L; NTN‐2L; source: recombinant

The target of test [1] is T1, extra‐cellular domain (ECD) of mouse DCC (mouse, UniProt P70211 26-1097).
T1 construct: DCC (deleted in colorectal carcinoma), mouse, extracellular domain; The Fc is inferred from the capture on AHC biosensors; also called mDCC; source: recombinant
Nature of the test: BLI; OctetRED96; ECDs of mNeogenin or mDCC coated on AHC biosensors, hNetrin-1 or chNetrin-2 in solution at 3.12-100 nM; 30°C, PBS, 0.02% Tween-20, 0.1% BSA with 1 µg/ml Dextran 5,000; 1:1 binding model. To be noted: both partners purified.

For test [2], the target named is B1. Nature of the test: BLI; OctetRED96; netrin-1 or netrin-2 coated on HIS1K biosensors, UNC5 ECDs in solution at 3.12-100 nM; 30°C, 1,000 rpm, PBS, 0.02% Tween-20, 0.1% BSA; 5 min association, 5 min dissociation; 1:1 binding model. To be noted: both partners purified.

T1 sequence (P70211 26-1097): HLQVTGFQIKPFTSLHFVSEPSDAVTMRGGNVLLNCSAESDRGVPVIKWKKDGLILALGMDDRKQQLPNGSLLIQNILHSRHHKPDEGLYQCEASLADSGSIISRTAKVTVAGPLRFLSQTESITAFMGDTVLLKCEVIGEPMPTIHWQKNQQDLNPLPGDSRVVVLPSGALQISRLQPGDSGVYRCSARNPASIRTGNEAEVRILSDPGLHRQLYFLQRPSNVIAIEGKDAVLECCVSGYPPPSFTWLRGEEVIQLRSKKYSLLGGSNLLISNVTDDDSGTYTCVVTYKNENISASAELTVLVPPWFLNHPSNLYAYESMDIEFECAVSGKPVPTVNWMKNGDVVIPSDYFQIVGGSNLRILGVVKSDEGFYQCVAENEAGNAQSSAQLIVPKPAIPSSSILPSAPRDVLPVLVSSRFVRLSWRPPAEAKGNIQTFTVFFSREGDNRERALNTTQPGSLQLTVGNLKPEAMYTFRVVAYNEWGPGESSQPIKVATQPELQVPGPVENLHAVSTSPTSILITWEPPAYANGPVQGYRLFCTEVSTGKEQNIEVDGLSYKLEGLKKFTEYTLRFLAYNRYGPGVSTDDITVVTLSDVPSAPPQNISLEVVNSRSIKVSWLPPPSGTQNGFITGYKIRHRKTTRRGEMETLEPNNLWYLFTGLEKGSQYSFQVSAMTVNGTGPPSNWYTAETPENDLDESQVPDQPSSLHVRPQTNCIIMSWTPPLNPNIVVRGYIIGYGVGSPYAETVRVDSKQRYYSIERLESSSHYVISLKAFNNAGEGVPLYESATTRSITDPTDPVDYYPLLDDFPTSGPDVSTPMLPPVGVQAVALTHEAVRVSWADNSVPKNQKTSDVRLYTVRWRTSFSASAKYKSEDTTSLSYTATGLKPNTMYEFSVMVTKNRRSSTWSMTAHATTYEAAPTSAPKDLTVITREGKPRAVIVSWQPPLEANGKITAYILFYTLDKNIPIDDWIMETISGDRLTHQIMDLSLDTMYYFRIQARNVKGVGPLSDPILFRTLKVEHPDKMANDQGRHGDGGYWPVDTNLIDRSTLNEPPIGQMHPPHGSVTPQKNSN

Regarding B1, the binding result in test [1] is “binds”.

B2: extra‐cellular domain (ECD) of human UNC5H1 (domain or fragment)
chain: not shown
notes: UNC5H1 (UNC5A), human, extracellular domain; it may be an Fc chimera like the other ECDs; also called hUNC5H1; UNC5A; source: recombinant
B2: the binding result in test [2] is listed as “binds”.

B3: extra‐cellular domain (ECD) of human UNC5H3 (domain or fragment)
chain: not shown
notes: UNC5H3 (UNC5C), human, extracellular domain; it may be an Fc chimera like the other ECDs; also called hUNC5H3; UNC5‐C; source: recombinant
Turning to B3, in test [2], the binding result is recorded as “binds”.

B4: extra‐cellular domain (ECD) of rat UNC5H2 (Fc fusion)
chain: not shown
notes: UNC5H2 (UNC5B), rat, extracellular domain; The Fc is inferred from the capture on AHC biosensors in the antagonism test; also called rUNC5H2; UNC5‐B; source: recombinant
Turning to B4, in test [2], the binding result is on record as “binds”.

For the origin of these results see article PMC8033513, “Targeting netrin‐3 in small cell lung cancer and neuroblastoma” (EMBO Molecular Medicine, 2021).
